In patent US20230250178A1 (published 2023):
Where two headings read alike, the source gives them in different places. Values belong to the binder of their own block, whether it stands above or below them.

Legend:
murine CCR8 [1] = target: T1, murine CCR8 (mouse, UniProt P56484 1-353); experiment: cell-based or functional assay
T1 sequence: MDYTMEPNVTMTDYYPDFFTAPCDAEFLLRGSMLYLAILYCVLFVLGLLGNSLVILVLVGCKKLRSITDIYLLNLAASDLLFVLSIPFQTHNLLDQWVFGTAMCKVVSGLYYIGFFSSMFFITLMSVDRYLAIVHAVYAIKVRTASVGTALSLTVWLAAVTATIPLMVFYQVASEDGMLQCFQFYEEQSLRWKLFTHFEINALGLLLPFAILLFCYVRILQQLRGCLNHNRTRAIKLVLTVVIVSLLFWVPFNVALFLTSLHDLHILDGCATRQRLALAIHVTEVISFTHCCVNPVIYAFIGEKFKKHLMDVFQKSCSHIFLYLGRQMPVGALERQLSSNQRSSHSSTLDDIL

human CCR8 [2] = target: T2, human CCR8 (human, UniProt P51685 1-355); experiment: FACS
T2 construct: also called hCCR8; P51685_CCR8_HUMAN

cynomolgus CCR8 [3] = target: T3, cynomolgus CCR8 (cynomolgus, UniProt O97665 1-356 (rhesus entry)); experiment: FACS
T3 construct: also called cynoCCR8; G7NYJ2_CCR8_MACFA

murine CCR8 [4] = target: T1, murine CCR8; experiment: FACS, CHO-mCCR8
human CCR8 [5] = target: T2, human CCR8; experiment: FACS screening, full length human IgG1
cynomolgus CCR8 [6] = target: T3, cynomolgus CCR8; experiment: FACS screening, full length human IgG1
human CCR8 [7] = target: T2, human CCR8; experiment: FACS, CHO-hCCR8
[8] = target: T4, HUMAN_TRD_Ys peptide (# 4) (human, Y(SO3) at printed positions 4, 16, 18 (Y3, Y15, Y17 of CCR8); C-terminal K(Biot)); experiment: SPR, peptide on SA chip
T4 construct: sulfated
T4 peptide: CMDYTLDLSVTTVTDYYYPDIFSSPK
Procedure: (§1) SPR binding assays were performed to systematically evaluate antibody binding to a) non-sulfated vs sulfated antigen, b) TRD vs N term and c) human vs cynomolgus CCR8. SPR binding assays were performed on a Biacore T200 instrument (Cytiva) at 25° C. with assay buffer 1× HBS-EP+(order no. BR100826, Cytiva). Peptides were used as ligands and were captured using their C-terminal biotin label on to a streptavidin coated sensor chip (“Sensor Chip SA”, Order No. BR100398, Cytiva). To this end, a terminal lysine (K) was added at the C-term of each peptide for biotinylation. For the N term of CCR8, the naturally occurring cysteine between TRD and LID domain was replaced by a serine. […] The concentration of analyte in assay buffer was 0.05-10 nM and the measurement was performed in multicycle kinetics mode. The sensor surface was regenerated with glycine pH 2.0 after each cycle. Obtained sensorgrams were double referenced (subtraction of reference flow cell signal and buffer injection) and were fitted to a 1:1 Langmuir binding model to derive kinetic data using the Biacore T200 Evaluation software.

[9] = target: T5, HUMAN_NTerm_Ys peptide (# 8) (human, Y(SO3) at printed positions 4, 16, 18 (Y3, Y15, Y17 of CCR8); C-terminal K(Biot)); experiment: SPR, peptide on SA chip
T5 construct: sulfated; natural cysteine between TRD and LID replaced by serine
T5 peptide: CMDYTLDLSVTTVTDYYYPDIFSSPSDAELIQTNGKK
Procedure: as §1

[10] = target: T6, Cyno_TRD_Ys peptide (# 2) (cynomolgus, Y(SO3) at printed positions 4, 16, 18 (Y3, Y15, Y17 of CCR8); C-terminal K(Biot)); experiment: SPR, peptide on SA chip
T6 construct: sulfated
T6 peptide: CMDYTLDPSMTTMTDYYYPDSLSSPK
Procedure: as §1

[11] = target: T7, Cyno_NTerm_Ys peptide (# 6) (cynomolgus, Y(SO3) at printed positions 4, 16, 18 (Y3, Y15, Y17 of CCR8); C-terminal K(Biot)); experiment: SPR, peptide on SA chip
T7 construct: sulfated; natural cysteine between TRD and LID replaced by serine
T7 peptide: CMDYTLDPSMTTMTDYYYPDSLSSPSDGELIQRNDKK
Procedure: as §1

cynomolgus CCR8 [12] = target: T3, cynomolgus CCR8; experiment: FACS, CHO-cynoCCR8
human CCR8 [13] = target: T2, human CCR8; experiment: FACS, CHO-hCCR8; remark: listed apart in the source
cynomolgus CCR8 [14] = target: T3, cynomolgus CCR8; experiment: FACS, CHO-cynoCCR8; remark: listed apart in the source
human CCR8 [15] = target: T2, human CCR8; experiment: FACS, HuT78 (endogenous hCCR8)
cynomolgus FcRn = cynomolgus FcRn (cynomolgus, UniProt Q8SPV9 24-297, limits assumed); experiment: SPR pH 6.0, FcRn immobilised
mouse FcRn = target: T8, mouse FcRn (mouse, UniProt Q61559 22-297, limits assumed); experiment: SPR pH 6.0, FcRn immobilised
T8 sequence (looked up): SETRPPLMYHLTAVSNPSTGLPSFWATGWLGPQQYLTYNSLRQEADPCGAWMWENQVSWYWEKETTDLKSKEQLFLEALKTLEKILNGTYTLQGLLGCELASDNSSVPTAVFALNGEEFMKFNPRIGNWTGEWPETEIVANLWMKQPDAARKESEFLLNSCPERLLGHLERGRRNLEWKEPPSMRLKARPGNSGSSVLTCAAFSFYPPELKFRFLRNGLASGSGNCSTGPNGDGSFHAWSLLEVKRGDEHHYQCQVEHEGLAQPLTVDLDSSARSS

human FcRn = target: T9, human FcRn (human, UniProt P55899 24-297); experiment: SPR pH 6.0, FcRn immobilised
T9 construct: also called neonatal Fc receptor

[16] = target: T10, FcRn of the FcRn column (Roche, Order No. 8128057001); experiment: FcRn affinity chromatography, pH gradient
T10 construct: also called immobilized FcRn
Procedure: A FcRn column (Roche, Order No. 8128057001; prepacked with approximately 1 mL resin; binding capacity: ≥100 μg IgG) was equilibrated with running buffer A: 20 mM MES/HCl pH 5.5 140 mM NaCl. 30 μL of each antibody (1 mg/mL in equilibration buffer) was applied to the column.

T3 sequence (O97665 other isoform, or with tags, fused parts or gaps): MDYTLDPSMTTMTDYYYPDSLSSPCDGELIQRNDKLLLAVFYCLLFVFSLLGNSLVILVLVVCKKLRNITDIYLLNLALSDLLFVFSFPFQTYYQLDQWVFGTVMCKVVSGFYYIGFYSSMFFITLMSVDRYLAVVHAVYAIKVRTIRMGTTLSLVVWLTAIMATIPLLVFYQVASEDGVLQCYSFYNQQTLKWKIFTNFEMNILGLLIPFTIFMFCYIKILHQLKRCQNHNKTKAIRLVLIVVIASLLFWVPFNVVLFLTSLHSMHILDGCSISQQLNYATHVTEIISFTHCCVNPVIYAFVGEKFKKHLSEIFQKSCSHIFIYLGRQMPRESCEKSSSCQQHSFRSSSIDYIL
cynomolgus FcRn, sequence (Q8SPV9 24-297 limits assumed, form in doubt): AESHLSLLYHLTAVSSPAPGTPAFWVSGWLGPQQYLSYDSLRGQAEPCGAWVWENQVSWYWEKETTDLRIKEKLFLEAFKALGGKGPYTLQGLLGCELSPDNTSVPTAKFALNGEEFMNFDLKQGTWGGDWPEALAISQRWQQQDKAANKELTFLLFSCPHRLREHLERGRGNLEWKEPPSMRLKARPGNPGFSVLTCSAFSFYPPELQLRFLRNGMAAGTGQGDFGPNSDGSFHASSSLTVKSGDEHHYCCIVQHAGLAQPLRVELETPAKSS
T9 sequence (P55899 24-297 limits assumed, form in doubt): as the sequence (Q8SPV9 24-297 limits assumed, form in doubt) above, with D39N, Q44E, S99G, G189S, N190S, M217L, T269S counted along it

B1: TPP-14095 (antibody, human IgG1, lambda, V domains shown)
VH: EVQLLESGGGLVQPGGSLRLSCAASGFTFSSYGMHWVRQAPGKGLEWVSAISGSGGSTYYADSVKGRFTISRDNSKNTLYLQMNSLRAEDTAVYYCARGRQLGSWGQGTLVTVSS
VL: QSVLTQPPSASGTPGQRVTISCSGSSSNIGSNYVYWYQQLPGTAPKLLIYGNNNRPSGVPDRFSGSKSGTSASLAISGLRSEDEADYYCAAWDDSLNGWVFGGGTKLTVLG
notes: anti-murine CCR8, human IgG1 lambda; also called 497A-M005-E07-hIgG1Lambda
IC50, Ca flux assay (murine CCR8 [1]): 1.65 nM | binding result (human CCR8 [2]): no binding | binding result (cynomolgus CCR8 [3]): no binding | EC50 (murine CCR8 [4]): 0.7 nM

B2: TPP-17575 (antibody, human IgG1, lambda, V domains shown)
VH: EVQLLESGGGLVQPGGSLRLSCAASGFTFRSYAMHWVRQAPGKGLEWVSLISWDGGSTYYADSVKGRFTISRDNSKNTLYLQMNSLRAEDTAVYYCARGGIGRRPGLEYWGQGTLVTVSS
VL: QSVLTQPPSASGTPGQRVTISCSGSSSNIGNNYVSWYQQLPGTAPKLLIYGNSNRPSGVPDRFSGSKSGTSASLAISGLRSEDEADYYCQTWGTGIRVFGGGTKLTVLG
notes: also called 497A-M181-C17-1-hIgG1Lambda
binding result (human CCR8 [5]): binds | binding result (cynomolgus CCR8 [6]): binds

B3: TPP-21181 (antibody, human IgG1, lambda, V domains shown)
VH: EVQLLESGGGLVQPGGSLRLSCAASGFTFSSYAMSWVRQAPGKGLEWVSGIRWNNGSKGYAGSVKGRFTISRDNSKNTLYLQMNSLRAEDTAVYYCARSGNYYYGYHGMDVWGQGTLVTVSS
VL: QSVLTQPPSASGTPGQRVTISCSGGNSNIGTYFVSWYQQLPGTAPKLLIYTNNQRPSGVPDRFSGSKSGTSASLAISGLRSEDEADYYCETWDSNTRVFGGGTKLTVLG
notes: also called 18205-gl46-hIgG1-wt-Lambda
EC50 (human CCR8 [7]): 4.8 nM | Activity in % [8]: 23.8% | Kd [8]: ~2.87 nM | koff [8]: ~16 s⁻¹ | kon [8]: ~5.56e+09 M⁻¹ s⁻¹ | Activity in % [9]: 17% | Kd [9]: ~2.88 nM | koff [9]: ~0.0222 s⁻¹ | kon [9]: ~7.69e+06 M⁻¹ s⁻¹ | Activity in % [10]: 52.9% | Kd [10]: ~1.39 nM | koff [10]: ~5.87 s⁻¹ | kon [10]: ~4.23e+09 M⁻¹ s⁻¹ | Activity in % [11]: 78.5% | Kd [11]: ~0.868 nM | koff [11]: ~10.7 s⁻¹ | EC50 (cynomolgus CCR8 [12]): 1.8 nM

B9: TPP-27495 (antibody, human IgG1, lambda)
heavy: EVQLLESGGGLVQPGGSLRLSCAASGFTFSSYGMHWVRQAPGKGLEWVSAINWNGGSTGYADSVKGRFTISRDNSKNTLYLQMNSLRAEDTAVYYCARGHHSGYDGRFFDYWGQGTLVTVSSASTKGPSVFPLAPSSKSTSGGTAALGCLVKDYFPEPVTVSWNSGALTSGVHTFPAVLQSSGLYSLSSVVTVPSSSLGTQTYICNVNHKPSNTKVDKKVEPKSCDKTHTCPPCPAPELLGGPSVFLFPPKPKDTLYITREPEVTCVVVDVSHEDPEVKFNWYVDGVEVHNAKTKPREEQYNSTYRVVSVLTVLHQDWLNGKEYKCKVSNKALPAPIEKTISKAKGQPREPQVYTLPPSRDELTKNQVSLTCLVKGFYPSDIAVEWESNGQPENNYKTTPPVLDSDGSFFLYSKLTVDKSRWQQGNVFSCSVMHEALHNHYTQKSLSLSPGK
light: not shown
modifications: 70% afucosylated
notes: also called TPP-27495 (YTE); copies: 2 + 2
EC50 (human CCR8 [13]): 1.32 nM | EC50 (cynomolgus CCR8 [14]): 0.535 nM | EC50 (human CCR8 [15]): 3.25 nM | Kd (cynomolgus FcRn): 30 nM | Kd (mouse FcRn): 33 nM | Kd (human FcRn): 29 nM | pH at Elution [16]: 7.88 pH

Further lines, results first:

binding result (human CCR8 [5]): binds | binding result (cynomolgus CCR8 [6]): binds
B4: TPP-17581 (antibody, human IgG1, lambda, V domains shown)
VH: EVQLLESGGGLVQPGGSLRLSCAASGFTFSNYRMTWVRQAPGKGLEWVSGINWNGGSTGYADSVKGRFTISRDNSKNTLYLQMNSLRAEDTAVYYCARGRFDTRGFYGFDYWGQGTLVTVSS
VL: QSVLTQPPSASGTPGQRVTISCTGSSSNIGAGYDVHWYQQLPGTAPKLLIYSHNQRPSGVPDRFSGSKSGTSASLAISGLRSEDEADYYCSAWDSSLSAWVFGGGTKLTVLG
notes: also called 497A-M177-L03-1-hIgG1Lambda

binding result (human CCR8 [5]): binds | binding result (cynomolgus CCR8 [6]): binds
B5: TPP-18207 (antibody, human IgG1, lambda, V domains shown)
VH: EVQLLESGGGLVQPGGSLRLSCAASGFTFSNAWMSWVRQAPGKGLEWVSGINWNGGSTGYADSVKGRFTISRDNSKNTLYLQMNSLRAEDTAVYYCARTYTGNYGPYFDYWGQGTLVTVSS
VL: QSVLTQPPSASGTPGQRVTISCTGSSSNIGAGYDVHWYQQLPGTAPKLLIYKNNQRPSGVPDRFSGSKSGTSASLAISGLRSEDEADYYCAAWDDSLRGWVFGGGTKLTVLG
notes: also called 001-B08_497A-M301-B18 + 497A-M316-D16-hIgG1Lambda

binding result (human CCR8 [5]): binds | binding result (cynomolgus CCR8 [6]): binds
B6: TPP-17576 (antibody, human IgG1, lambda, V domains shown)
VH: EVQLLESGGGLVQPGGSLRLSCAASGFTFSSYAMSWVRQAPGKGLEWVGRIRSKANSYATAYAASVKGRFTISRDNSKNTLYLQMNSLRAEDTAVYYCTRPLDSWGQGTLVTVSS
VL: QSVLTQPPSASGTPGQRVTISCSGSSSNIGNNAVNWYQQLPGTAPKLLIYRNNQRSSGVPDRFSGSKSGTSASLAISGLRSEDEADYYCQSYDNSLSASVFGGGTKLTVLG
notes: also called 497A-M136-021-1-hIgG1Lambda

binding result (human CCR8 [5]): binds | binding result (cynomolgus CCR8 [6]): binds
B7: TPP-17579 (antibody, human IgG1, lambda, V domains shown)
VH: EVQLLESGGGLVQPGGSLRLSCAASGFTFVTYWMTWVRQAPGKGLEWVSGVSWNGSRTHYVDSVKRRFTISRDNSKNTLYLQMNSLRAEDTAVYYCARYSGYPDYYGMDVWGQGTLVTVSS
VL: QSVLTQPPSASGTPGQRVTISCSGSWSNIGNDNVYWYQQLPGTAPKLLIYRNNQRPSGVPDRFSGSKSGTSASLAISGLRSEDEADYYCQSYDRSLSGSVFGGGTKLTVLG
notes: also called 497A-M180-K04-1-hIgG1Lambda

binding result (human CCR8 [5]): binds | binding result (cynomolgus CCR8 [6]): binds
B8: TPP-17580 (antibody, human IgG1, lambda, V domains shown)
VH: EVQLLESGGGLVQPGGSLRLSCAASGFTFSSYGMHWVRQAPGKGLEWVSGVSWNGSRTRYADSVKGRFTISRDNSKNTLYLQMNSLRAEDTAVYYCTRGSYNSGWYAVSWGQGTLVTVSS
VL: QSVLTQPPSASGTPGQRVTISCSGSSSNIGSYPVNWYQQLPGTAPKLLIYRNNQRPSGVPDRFSGSKSGTSASLAISGLRSEDEADYYCSSYSVTDNLIFGGGTKLTVLG
notes: also called 497A-M193-A08-1-hIgG1Lambda
